Starred links: 1 amine or outer side, 2 acyl side, 3 side chain; linkers in the order of their positions; H or OH if unused. Non-standard residues stand in square brackets, D forms with d. Groups on a side chain read outwards from the residue. Primed or numbered codes have the meaning given here. No end group written: not given here. *: point of attachment. γGlu = O=C(O)[C@H](CCC(=O)[*:2])N[*:1]; αMeF = C[C@](N)(Cc1ccccc1)C(=O)O; αMeK = C[C@](N)(CCCCN)C(=O)O; Lauroyl = CCCCCCCCCCCC(=O)*; αMeS = C[C@](N)(CO)C(=O)O; PEG2′ = not defined here; Aib = CC(C)(N)C(=O)O
T1: glucose-dependent insulinotropic peptide (gastric inhibitory polypeptide) receptor (GIPR), primary cAMP assay … (human, UniProt P48546 22-466)
T1 sequence (looked up): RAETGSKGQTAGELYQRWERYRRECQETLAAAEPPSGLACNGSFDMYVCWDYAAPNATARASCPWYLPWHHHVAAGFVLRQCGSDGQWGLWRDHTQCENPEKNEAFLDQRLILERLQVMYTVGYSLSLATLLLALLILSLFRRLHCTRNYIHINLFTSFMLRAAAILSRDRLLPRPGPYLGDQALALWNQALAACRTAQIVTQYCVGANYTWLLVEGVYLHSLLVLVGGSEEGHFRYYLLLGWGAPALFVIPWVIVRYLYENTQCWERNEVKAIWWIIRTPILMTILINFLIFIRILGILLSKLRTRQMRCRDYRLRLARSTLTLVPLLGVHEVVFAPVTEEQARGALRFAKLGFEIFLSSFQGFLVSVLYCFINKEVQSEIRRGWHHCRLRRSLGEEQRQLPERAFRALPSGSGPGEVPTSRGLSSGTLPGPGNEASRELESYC


Molecular target: GLP-1 receptor (GLP-1R), primary cAMP assay cell line (human, UniProt P43220 24-463)
Assay: cell-based or functional assay

Binder	cAMP Primary assay EC50, Mean pM GLP-1R [pM]	cAMP Primary assay EC50, n1 [pM]	cAMP Primary assay EC50, n2 [pM]
H[Aib]EGS[αMeF]TSDV[αMeS]SK([PEG2′-PEG2′-γGlu-Lauroyl])LEK([PEG2′-PEG2′-γGlu-Lauroyl])EAA[αMeK]EFIK([PEG2′-PEG2′-γGlu-Lauroyl])FVVEGG-NH2 [SEQ ID NO: 447]	150	123	176
H[Aib]EGS[αMeF]TSDV[αMeS]SYK([PEG2′-PEG2′-γGlu-Lauroyl])EK([PEG2′-PEG2′-γGlu-Lauroyl])EAA[αMeK]EFIK([PEG2′-PEG2′-γGlu-Lauroyl])FVVEGG-NH2 [SEQ ID NO: 451]	93.4	28.8	158
H[Aib]EGS[αMeF]TSDVSK([PEG2′-PEG2′-γGlu-Lauroyl])YLEK([PEG2′-PEG2′-γGlu-Lauroyl])EAA[αMeK]EFIK([PEG2′-PEG2′-γGlu-Lauroyl])FVVEGG-NH2 [SEQ ID NO: 443]	223	192	254
H[Aib]EGS[αMeF]TSDK([PEG2′-PEG2′-γGlu-Lauroyl])SSYLEGEAA[αMeK]K([PEG2′-PEG2′-γGlu-Lauroyl])FIK([PEG2′-PEG2′-γGlu-Lauroyl])FVVEGG-NH2 [SEQ ID NO: 442]	82	60.9	103
H[Aib]EGS[αMeF]TSDK([PEG2′-PEG2′-γGlu-Lauroyl])SSYLEGK([PEG2′-PEG2′-γGlu-Lauroyl])AA[αMeK]EFIAK([PEG2′-PEG2′-γGlu-Lauroyl])VVEGG-NH2 [SEQ ID NO: 456]	170	116	224

The next lines start with the values.

cAMP Primary assay EC50, Mean pM GLP-1R [pM]	cAMP Primary assay EC50, n1 [pM]	cAMP Primary assay EC50, n2 [pM]	Binder
78.1	67.4	88.8	H[Aib]EGS[αMeF]TSDVSK([PEG2′-PEG2′-γGlu-Lauroyl])YLEGK([PEG2′-PEG2′-γGlu-Lauroyl])AA[αMeK]EFIAK([PEG2′-PEG2′-γGlu-Lauroyl])VVEGG-NH2 [SEQ ID NO: 460]
82	69.5	94.4	H[Aib]EGS[αMeF]TSDV[αMeS]SK([PEG2′-PEG2′-γGlu-Lauroyl])LEK([PEG2′-PEG2′-γGlu-Lauroyl])EAA[αMeK]EFIAK([PEG2′-PEG2′-γGlu-Lauroyl])VVEGG-NH2 [SEQ ID NO: 463]
110	74.5	145	H[Aib]EGS[αMeF]TSDVSK([PEG2′-PEG2′-γGlu-Lauroyl])YLEGEK([PEG2′-PEG2′-γGlu-Lauroyl])A[αMeK]EFIAK([PEG2′-PEG2′-γGlu-Lauroyl])VVEGG-NH2 [SEQ ID NO: 461]

Molecular target: glucagon receptor (GCGR), primary cAMP assay cell line (human, UniProt P47871 26-477)
Sequence (P47871 26-477): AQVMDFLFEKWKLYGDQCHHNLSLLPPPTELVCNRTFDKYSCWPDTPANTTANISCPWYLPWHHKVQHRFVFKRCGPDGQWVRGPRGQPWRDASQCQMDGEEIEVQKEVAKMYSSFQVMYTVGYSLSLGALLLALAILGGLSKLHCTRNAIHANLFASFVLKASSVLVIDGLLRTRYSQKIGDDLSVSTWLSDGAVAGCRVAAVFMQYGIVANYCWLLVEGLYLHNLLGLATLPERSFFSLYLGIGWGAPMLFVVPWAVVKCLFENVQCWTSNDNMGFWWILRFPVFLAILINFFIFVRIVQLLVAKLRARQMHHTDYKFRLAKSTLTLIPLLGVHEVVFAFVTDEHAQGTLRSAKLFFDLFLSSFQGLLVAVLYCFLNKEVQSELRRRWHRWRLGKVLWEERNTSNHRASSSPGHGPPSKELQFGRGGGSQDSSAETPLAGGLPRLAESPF
Assay: cell-based or functional assay

Binder	cAMP Primary assay EC50, n1 [nM]	cAMP Primary assay EC50, n2 [nM]
H[Aib]EGS[αMeF]TSDV[αMeS]SK([PEG2′-PEG2′-γGlu-Lauroyl])LEK([PEG2′-PEG2′-γGlu-Lauroyl])EAA[αMeK]EFIK([PEG2′-PEG2′-γGlu-Lauroyl])FVVEGG-NH2 [SEQ ID NO: 447]	19.7	19.7
H[Aib]EGS[αMeF]TSDV[αMeS]SYK([PEG2′-PEG2′-γGlu-Lauroyl])EK([PEG2′-PEG2′-γGlu-Lauroyl])EAA[αMeK]EFIK([PEG2′-PEG2′-γGlu-Lauroyl])FVVEGG-NH2 [SEQ ID NO: 451]	19.7	19.5
H[Aib]EGS[αMeF]TSDVSK([PEG2′-PEG2′-γGlu-Lauroyl])YLEK([PEG2′-PEG2′-γGlu-Lauroyl])EAA[αMeK]EFIK([PEG2′-PEG2′-γGlu-Lauroyl])FVVEGG-NH2 [SEQ ID NO: 443]	19.4	19.4
H[Aib]EGS[αMeF]TSDK([PEG2′-PEG2′-γGlu-Lauroyl])SSYLEGEAA[αMeK]K([PEG2′-PEG2′-γGlu-Lauroyl])FIK([PEG2′-PEG2′-γGlu-Lauroyl])FVVEGG-NH2 [SEQ ID NO: 442]	19.7	19.7
H[Aib]EGS[αMeF]TSDK([PEG2′-PEG2′-γGlu-Lauroyl])SSYLEGK([PEG2′-PEG2′-γGlu-Lauroyl])AA[αMeK]EFIAK([PEG2′-PEG2′-γGlu-Lauroyl])VVEGG-NH2 [SEQ ID NO: 456]	10	20

Second part, the binder after the results:

cAMP Primary assay EC50, n1 [nM]	cAMP Primary assay EC50, n2 [nM]	Binder
20	20	H[Aib]EGS[αMeF]TSDVSK([PEG2′-PEG2′-γGlu-Lauroyl])YLEGK([PEG2′-PEG2′-γGlu-Lauroyl])AA[αMeK]EFIAK([PEG2′-PEG2′-γGlu-Lauroyl])VVEGG-NH2 [SEQ ID NO: 460]
20	20	H[Aib]EGS[αMeF]TSDV[αMeS]SK([PEG2′-PEG2′-γGlu-Lauroyl])LEK([PEG2′-PEG2′-γGlu-Lauroyl])EAA[αMeK]EFIAK([PEG2′-PEG2′-γGlu-Lauroyl])VVEGG-NH2 [SEQ ID NO: 463]
19.8	19.8	H[Aib]EGS[αMeF]TSDVSK([PEG2′-PEG2′-γGlu-Lauroyl])YLEGEK([PEG2′-PEG2′-γGlu-Lauroyl])A[αMeK]EFIAK([PEG2′-PEG2′-γGlu-Lauroyl])VVEGG-NH2 [SEQ ID NO: 461]

Molecular target: T1, glucose-dependent insulinotropic …
Assay: cell-based or functional assay

Binder	cAMP Primary assay EC50, n1 [nM]	cAMP Primary assay EC50, n2 [nM]
H[Aib]EGS[αMeF]TSDV[αMeS]SK([PEG2′-PEG2′-γGlu-Lauroyl])LEK([PEG2′-PEG2′-γGlu-Lauroyl])EAA[αMeK]EFIK([PEG2′-PEG2′-γGlu-Lauroyl])FVVEGG-NH2 [SEQ ID NO: 447]	19.7	19.7
H[Aib]EGS[αMeF]TSDV[αMeS]SYK([PEG2′-PEG2′-γGlu-Lauroyl])EK([PEG2′-PEG2′-γGlu-Lauroyl])EAA[αMeK]EFIK([PEG2′-PEG2′-γGlu-Lauroyl])FVVEGG-NH2 [SEQ ID NO: 451]	19.7	19.5
H[Aib]EGS[αMeF]TSDVSK([PEG2′-PEG2′-γGlu-Lauroyl])YLEK([PEG2′-PEG2′-γGlu-Lauroyl])EAA[αMeK]EFIK([PEG2′-PEG2′-γGlu-Lauroyl])FVVEGG-NH2 [SEQ ID NO: 443]	19.4	19.4
H[Aib]EGS[αMeF]TSDK([PEG2′-PEG2′-γGlu-Lauroyl])SSYLEGEAA[αMeK]K([PEG2′-PEG2′-γGlu-Lauroyl])FIK([PEG2′-PEG2′-γGlu-Lauroyl])FVVEGG-NH2 [SEQ ID NO: 442]	19.7	19.7
H[Aib]EGS[αMeF]TSDK([PEG2′-PEG2′-γGlu-Lauroyl])SSYLEGK([PEG2′-PEG2′-γGlu-Lauroyl])AA[αMeK]EFIAK([PEG2′-PEG2′-γGlu-Lauroyl])VVEGG-NH2 [SEQ ID NO: 456]	20	20

Continued, values first:

cAMP Primary assay EC50, n1 [nM]	cAMP Primary assay EC50, n2 [nM]	Binder
20	20	H[Aib]EGS[αMeF]TSDVSK([PEG2′-PEG2′-γGlu-Lauroyl])YLEGK([PEG2′-PEG2′-γGlu-Lauroyl])AA[αMeK]EFIAK([PEG2′-PEG2′-γGlu-Lauroyl])VVEGG-NH2 [SEQ ID NO: 460]
20	20	H[Aib]EGS[αMeF]TSDV[αMeS]SK([PEG2′-PEG2′-γGlu-Lauroyl])LEK([PEG2′-PEG2′-γGlu-Lauroyl])EAA[αMeK]EFIAK([PEG2′-PEG2′-γGlu-Lauroyl])VVEGG-NH2 [SEQ ID NO: 463]
19.8	19.8	H[Aib]EGS[αMeF]TSDVSK([PEG2′-PEG2′-γGlu-Lauroyl])YLEGEK([PEG2′-PEG2′-γGlu-Lauroyl])A[αMeK]EFIAK([PEG2′-PEG2′-γGlu-Lauroyl])VVEGG-NH2 [SEQ ID NO: 461]
